Measurements reported in paper PMC10564760, “A human monoclonal antibody binds within the poliovirus receptor-binding site to neutralize all three serotypes” (Nature Communications, 2023).

T1: wild-type poliovirus type 2 capsid (Poliovirus type 2, wild type; strain …, strain)
T1 construct: also called WTPV2; wild-type PV2; copies: + + +
T1 chain 1: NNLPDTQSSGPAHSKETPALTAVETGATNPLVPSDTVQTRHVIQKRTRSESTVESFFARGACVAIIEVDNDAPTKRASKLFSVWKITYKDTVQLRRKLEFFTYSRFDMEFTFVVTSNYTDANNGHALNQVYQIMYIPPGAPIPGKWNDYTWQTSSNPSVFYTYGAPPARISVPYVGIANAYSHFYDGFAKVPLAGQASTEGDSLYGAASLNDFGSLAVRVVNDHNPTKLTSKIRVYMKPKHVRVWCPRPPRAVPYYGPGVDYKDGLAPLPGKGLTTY
T1 chain 2: not shown
T1 chain 3: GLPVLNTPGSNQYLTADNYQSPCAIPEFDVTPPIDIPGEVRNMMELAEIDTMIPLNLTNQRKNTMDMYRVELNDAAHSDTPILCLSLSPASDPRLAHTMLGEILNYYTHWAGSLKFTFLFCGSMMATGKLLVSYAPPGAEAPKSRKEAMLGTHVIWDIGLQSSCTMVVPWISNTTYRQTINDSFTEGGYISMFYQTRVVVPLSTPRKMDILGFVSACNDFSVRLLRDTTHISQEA

T2: wild-type poliovirus serotype 2 capsid (Poliovirus type 2, wild type; strain …, strain)
T2 construct: also called WTPV2; wild-type PV2; copies: + + +
T2 chain 1: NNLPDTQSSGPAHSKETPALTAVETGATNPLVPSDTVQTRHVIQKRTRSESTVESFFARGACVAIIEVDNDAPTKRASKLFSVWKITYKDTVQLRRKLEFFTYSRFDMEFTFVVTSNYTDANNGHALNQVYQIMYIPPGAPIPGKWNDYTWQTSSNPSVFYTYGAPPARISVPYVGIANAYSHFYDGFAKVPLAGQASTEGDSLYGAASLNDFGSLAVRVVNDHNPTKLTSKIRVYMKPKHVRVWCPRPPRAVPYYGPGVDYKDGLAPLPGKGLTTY
T2 chain 2: not shown
T2 chain 3: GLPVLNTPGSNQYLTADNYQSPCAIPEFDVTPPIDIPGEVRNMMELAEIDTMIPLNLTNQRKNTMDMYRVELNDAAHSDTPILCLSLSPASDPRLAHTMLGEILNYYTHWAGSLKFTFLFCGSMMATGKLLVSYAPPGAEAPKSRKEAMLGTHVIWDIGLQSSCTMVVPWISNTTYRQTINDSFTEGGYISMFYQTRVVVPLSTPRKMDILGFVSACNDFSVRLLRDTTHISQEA


What was measured:
Conditions in all cases: both partners purified
[1] = target: T3, Sabin inactivated poliovirus type 2 capsid (Poliovirus type 2, Sabin strain …, strain); test: BLI
T3 construct: also called SIPV2; ISPV2; copies: + + +

[2] = target: T4, Sabin poliovirus type 1 capsid (live) (Poliovirus type 1, Sabin (live), UniProt P03301, strain, biotin (EZ-Link Micro Sulfo-NHS-Biotinylation Kit) | biotin (EZ-Link Micro Sulfo-NHS-Biotinylation Kit) | biotin (EZ-Link Micro Sulfo-NHS-Biotinylation Kit)); test: BLI
T4 construct: also called SPV1; Sabin serotype 1; copies: + + +

[3] = target: T1, wild-type poliovirus type 2 capsid; test: cryo-EM structure
[4] = target: T2, wild-type poliovirus serotype 2 capsid; test: cryo-EM structure

| Binder | Kd [1] | koff [1] | kon [1] | Kd [2] | koff [2] | kon [2] | binding result [3] | binding result [4] |
| --- | --- | --- | --- | --- | --- | --- | --- | --- |
| 9H2 fragment antigen-binding (Fab) (Fab, V domains shown, also called 9H2 Fab; Fab 9H2) VH: LVQSGAELKKPGASVKFSCQASGFTFTTYDIHWVRQAPGQGLEWMGMISPSRDSTIYAQKFQGRVTMTSDTSTSTVYMELTSLRSEDTALYYCATASRPSAWVFRSLYTYYYMDVWGTGTTVTVSS VL: QSALTQPASVSGSPGQSITISCTGTITDIGYYNYVSWYQQHPGKAPKLIIFDVTNRPSGVSDRFSGSKSGNTASLTISGLQAEDEGDYYCFSHRSNNIRVFGGGTKLTVL [9H2 fragment antigen-binding (Fab), listing 1 of 2 here] | 2.1 µM | 0.483 s⁻¹ | 230000 M⁻¹ s⁻¹ | 936 µM | 1.05 s⁻¹ | 1120 M⁻¹ s⁻¹ | binds |  |
| 9H2 fragment antigen-binding (Fab) (Fab, V domains shown, also called 9H2 Fab; Fab 9H2) VH: LVQSGAELKKPGASVKFSCQASGFTFTTYDIHWVRQAPGQGLEWMGMISPSRDSTIYAQKFQGRVTMTSDTSTSTVYMELTSLRSEDTALYYCATASRPSAWVFRSLYTYYYMDVWGTGTTVTVSS VL: QSALTQPASVSGSPGQSITISCTGTITDIGYYNYVSWYQQHPGKAPKLIIFDVTNRPSGVSDRFSGSKSGNTASLTISGLQAEDEGDYYCFSHRSNNIRVFGGGTKLTVL [9H2 fragment antigen-binding (Fab), listing 2 of 2 here] |  |  |  |  |  |  |  | binds |
